Reference: PMC12207370, “Macrocyclic Peptide Probes for Immunomodulatory Protein CD59: Potent Modulators of Bacterial Toxin Activity and Antibody‐Dependent Cytotoxicity” (Angewandte Chemie (International Ed. in English), 2025)

Target: T1, biotinylated CD59 (Homo sapiens, UniProt P13987)
T1 construct: Recombinant soluble human CD59 with an additional C-terminal cysteine residue
T1 sequence (P13987 26-102 limits assumed): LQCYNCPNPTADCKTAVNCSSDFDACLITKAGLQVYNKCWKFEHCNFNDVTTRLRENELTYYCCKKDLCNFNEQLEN
Assay: mRNA-display cyclic peptide screen against CD59-biotin, NGS abundance after 6th selection round
Settings: for Counts (raw counts for peptide sequence), Seq I: NGS sample Seq I; for Counts (raw counts for peptide sequence), Seq I / Counts (raw counts for peptide sequence), Seq II / Counts Seq I / Counts Seq II: sheet R6 (6th selection round); for Counts (raw counts for peptide sequence), Seq II: NGS sample Seq II; for Percentage of the pool, averaged across the two sequencing samples: average of Seq I and Seq II; for Percentage of the pool, averaged across the two sequencing samples / Percentage of the pool, Seq I / Percentage of the pool, Seq II / Percentage Seq I / Percentage Seq II / Percentage Average: sheet R6; for Percentage of the pool, Seq I: counts normalised by total counts of NGS sample Seq I; for Percentage of the pool, Seq II: counts normalised by total counts of NGS sample Seq II; for Percentage Seq I: counts normalised by total counts of sample Seq I; for Percentage Seq I / Percentage Seq II: percentage of the pool; for Percentage Seq II: counts normalised by total counts of sample Seq II; for Percentage Average: percentage of the pool averaged across the two sequencing samples; for Counts Seq I / Counts Seq II: raw NGS counts of peptide sequence; for Counts Seq I: sequencing sample Seq I; for Counts Seq II: sequencing sample Seq II
In short: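 Peptide–mRNA fusions were made by in vitro translation with a customised PURE express kit. The kit lacked release factor 1 and methionine and was supplemented with […] initiator tRNA carrying N-chloroacetyl-d-tyrosine. Thioether macrocycles were formed, then enriched and amplified over iterative rounds on CD59-biotin immobilised on streptavidin beads. NGS read counts per sequence were recorded after the 6th selection round.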

Row | Sequence | Counts (raw counts for peptide sequence), Seq I | Counts (raw counts for peptide sequence), Seq II | Percentage of the pool, averaged across the two sequencing samples [%] | Percentage of the pool, Seq I [%] | Percentage of the pool, Seq II [%] | Percentage Seq I [%] | Percentage Seq II [%] | Percentage Average [%] | Counts Seq I | Counts Seq II
1 | HVFGNRSFARG | 78 | 6 | 0.016 | 0.018 | 0.014 | – | – | – | – | –
2 | CYGGRTFIYACS | – | – | – | – | – | 0.019 | 0.021 | 0.020 | 83 | 9
3 | CFSHRPGPSI | – | – | – | – | – | 0.147 | 0.132 | 0.140 | 642 | 57
4 | CFSNRISGPAV | – | – | – | – | – | 0.197 | 0.214 | 0.205 | 864 | 92
5 | CFSSRVQSGDT | – | – | – | – | – | 0.214 | 0.190 | 0.202 | 936 | 82
6 | SAWGNRRIQYY | – | – | – | – | – | 0.034 | 0.037 | 0.035 | 148 | 16
7 | CFSARATLDGGW | – | – | – | – | – | 0.036 | 0.030 | 0.033 | 157 | 13
8 | WVYGSSTFRYQ | – | – | – | – | – | 0.030 | 0.030 | 0.030 | 133 | 13
9 | TSYGSRVFAYF | – | – | – | – | – | 0.031 | 0.030 | 0.031 | 135 | 13
10 | SFAKRVAAQGGC | – | – | – | – | – | 0.030 | 0.021 | 0.026 | 133 | 9
11 | SWTWGNRSSARG | – | – | – | – | – | 0.025 | 0.035 | 0.030 | 110 | 15
12 | FVRGDLYSVRG | – | – | – | – | – | 0.018 | 0.032 | 0.025 | 78 | 14
13 | CFLTRASQLSGT | 44 | 4 | 0.010 | 0.010 | 0.009 | – | – | – | – | –
14 | CFAHRITDPDTQ | – | – | – | – | – | 0.023 | 0.019 | 0.021 | 100 | 8
15 | FIRGDSTSVLF | 54 | 6 | 0.013 | 0.012 | 0.014 | – | – | – | – | –
16 | FIRGNSTSVLF | – | – | – | – | – | 1.617 | 1.838 | 1.728 | 7076 | 792
17 | CYGNSHASWG | – | – | – | – | – | 0.483 | 0.469 | 0.476 | 2115 | 202
18 | CYSLRLGPETV | 37 | 6 | 0.011 | 0.00846 | 0.014 | – | – | – | – | –
19 | CFSARTDSSGT | – | – | – | – | – | 0.053 | 0.039 | 0.046 | 231 | 17
20 | FVRGDLYSVLG | – | – | – | – | – | 4.958 | 4.911 | 4.934 | 21693 | 2116
21 | GRLNECHAIWP | – | – | – | – | – | 0.112 | 0.104 | 0.108 | 488 | 45
22 | VVRGGTAFRYE | – | – | – | – | – | 0.022 | 0.026 | 0.024 | 96 | 11
23 | CYGGRSFIYAWS | 47 | 6 | 0.012 | 0.011 | 0.014 | – | – | – | – | –

Row | Sequence | Counts (raw counts for peptide sequence), Seq I | Counts (raw counts for peptide sequence), Seq II | Percentage of the pool, averaged across the two sequencing samples [%] | Percentage of the pool, Seq I [%] | Percentage of the pool, Seq II [%] | Percentage Seq I [%] | Percentage Seq II [%] | Percentage Average [%] | Counts Seq I | Counts Seq II
24 | VARGNSNTVWG | – | – | – | – | – | 0.019 | 0.021 | 0.020 | 85 | 9
25 | SAWGNRKIQYY | 55 | 5 | 0.012 | 0.013 | 0.012 | – | – | – | – | –
26 | CFKHRLGTDSA | – | – | – | – | – | 0.097 | 0.086 | 0.091 | 423 | 37
27 | CYGGRAFIYAWS | – | – | – | – | – | 0.042 | 0.044 | 0.043 | 185 | 19
28 | VSRGDSTYTLF | – | – | – | – | – | 0.031 | 0.028 | 0.030 | 137 | 12
29 | KWGSSFFTLYRV | 49 | 4 | 0.010 | 0.011 | 0.009 | – | – | – | – | –
30 | TISGGRDYTRG | – | – | – | – | – | 0.948 | 0.935 | 0.941 | 4146 | 403
31 | CFVSRTQIGSV | 85 | 2 | 0.012 | 0.019 | 0.00464 | – | – | – | – | –
32 | WILGSRWWTQS | – | – | – | – | – | 0.921 | 0.903 | 0.912 | 4031 | 389
33 | LWGAANYLKVIY | – | – | – | – | – | 0.046 | 0.023 | 0.035 | 201 | 10
34 | LVRGDLYSVLG | 85 | 7 | 0.018 | 0.019 | 0.016 | – | – | – | – | –
35 | FARGDWNHQFY | 120 | 3 | 0.017 | 0.027 | 0.007 | – | – | – | – | –
36 | CFVLRRNFEGT | 53 | 5 | 0.012 | 0.012 | 0.012 | – | – | – | – | –
37 | CYGGRTFIYARS | – | – | – | – | – | 0.027 | 0.016 | 0.021 | 117 | 7
38 | HCWVRGSRNHT | 54 | 5 | 0.012 | 0.012 | 0.012 | – | – | – | – | –
39 | CFTLRVLDVSAV | 100 | 5 | 0.017 | 0.023 | 0.012 | – | – | – | – | –
40 | CFSRRLTAGAI | – | – | – | – | – | 2.075 | 2.091 | 2.083 | 9078 | 901
41 | SWTWGDRSSVRG | – | – | – | – | – | 0.016 | 0.023 | 0.020 | 71 | 10
42 | WSTRTFTCRTLL | – | – | – | – | – | 0.395 | 0.446 | 0.420 | 1728 | 192
43 | LWGTRSFTLVRS | 64 | 5 | 0.013 | 0.015 | 0.012 | – | – | – | – | –
44 | CFRYRLGLTST | – | – | – | – | – | 0.062 | 0.058 | 0.060 | 271 | 25
45 | GRVRTCPVIV | 65 | 5 | 0.013 | 0.015 | 0.012 | – | – | – | – | –
46 | AVRGSSFYVWG | – | – | – | – | – | 0.098 | 0.107 | 0.102 | 427 | 46
